The numbers were not newly measured in PMC6484326, which cites them from elsewhere.

For the series, the target named is GPIIb-IIIa (Homo sapiens) (UniProt P08514).

Regarding fibrinogen (from UniProt P02671), the Kd (as a rule, a measure of binding affinity in units of concentration) was 100 nM.
